The results in this text go back to IntAct's records for PubMed 22949673.

B1: 5-cytosine rRNA methyltransferase NSUN4 (Homo sapiens), Q96CB9-1 (parent)
chain: MAALTLRGVRELLKRVDLATVPRRHRYKKKWAATEPKFPAVRLALQNFDMTYSVQFGDLWPSIRVSLLSEQKYGALVNNFAAWDHVSAKLEQLSAKDFVNEAISHWELQSEGGQSAAPSPASWACSPNLRCFTFDRGDISRFPPARPGSLGVMEYYLMDAASLLPVLALGLQPGDIVLDLCAAPGGKTLALLQTGCCRNLAANDLSPSRIARLQKILHSYVPEEIRDGNQVRVTSWDGRKWGELEGDTYDRVLVDVPCTTDRHSLHEEENNIFKRSRKKERQILPVLQVQLLAAGLLATKPGGHVVYSTCSLSHLQNEYVVQGAIELLANQYSIQVQVEDLTHFRRVFMDTFCFFSSCQVGELVIPNLMANFGPMYFCKMRRLT
partner: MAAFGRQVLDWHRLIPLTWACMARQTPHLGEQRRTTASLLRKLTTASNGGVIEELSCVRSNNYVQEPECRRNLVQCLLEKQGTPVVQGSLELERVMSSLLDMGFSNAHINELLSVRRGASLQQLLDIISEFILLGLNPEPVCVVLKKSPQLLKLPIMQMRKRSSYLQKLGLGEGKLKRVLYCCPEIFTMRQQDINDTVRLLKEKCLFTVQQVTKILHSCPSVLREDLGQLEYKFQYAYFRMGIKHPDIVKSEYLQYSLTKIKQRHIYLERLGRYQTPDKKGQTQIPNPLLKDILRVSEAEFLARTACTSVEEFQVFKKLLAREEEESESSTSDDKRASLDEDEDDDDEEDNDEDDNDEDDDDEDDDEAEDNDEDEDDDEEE

The variants in the assay derive from B1. The conditions noted are these: with mtef4_human MTERF4, Q7Z6M4.
In the case of V65R;R136A;I139R;R141A, the “effect of a mutation on the interaction” value is “disrupting interaction strength”.
